Assay results reported in paper PMC2133053 (The Journal of Cell Biology, 1998).

Target: GST–INAD fusion protein (full-length INAD in pGEX5.1) (Drosophila, UniProt Q24008 1-674)
Assay: pull-down

fold reduction of binding relative to wild-type PKC: ~8 fold
B1: PKC^D (last three residues changed to aspartic acid), in vitro translated, 35S-labelled (enzyme, Drosophila, UniProt P13677 1-700, looked up)
chain: MAAAAVATPGATVLPPSVPSAAPGAKAPAAGAGKGPGNLLEITGEANIVNYMKNRLRKGAMKRKGLEMVNGHRFGVRFFKNPTYCGHCKDFIWGFGKQGFQCEECRFNIHQKCCKFVVFKCPGKDTDFDADCAKVKHGWISTTYTTPTFCDECGLLLHGVAHQGVKCENCNLNVHHACQETVPPMCGADISEVRGKLLLYVELKGNNLKVDIKEAANLIPMDTNGFSDPYIAVQMHPDRSGRTKKKTKTIQKNLNPVFNETFTFELQPQDRDKRLLIEVWDWDRTSRNDFMGSFSFSLEELQKEPVDGWYKFLSQVEGEHYNIPCVDAFNDIARLRDEVRHDRRPNEKRRMDNKDMPHNMSKRDMIRAADFNFVKVIGKGSFGKVLLAERRGTDELYAVKVLRKDVIIQTDDMELPMNEKKILALSGRPPFLVSMHSCFQTMDRLFFVMEYCKGGDLMYHMQQYGRFKESVAIFYAVEVAIALFFLHERDIIYRDLKLDNILLDGEGHVKLVDFGLSKEGVTERQTTRTFCGTPNYMAPEIVSYDPYSIAADWWSFGVLLFEFMAGQAPFEGDDETTVFRNIKDKKAVFPKHFSVEAMDIITSFLTKKPNNRLGAGRYARQEITTHPFFRNVDWDKAEACEMEPPIKPMIKHRKDISNFDDAFTKEKTDLTPTDKLFMMNLDQNDFIGFSFMNPEFIDDD
modifications: [35S]methionine label
